First the molecules themselves.
B1: Snx29_Left (dsDNA)
DNA 1: TCAGATACTGGGAACACTGTCAC
DNA 2: GTGACAGTGTTCCCAGTATCTGA
B2: Snx25_A (dsDNA)
DNA 1: TCAGAAAAAGGGAAAAGGGTCAC
DNA 2: GTGACCCTTTTCCCTTTTTCTGA
B3: Snx29_Right (dsDNA)
DNA 1: TCAGACACTGAGAATACTGTCAC
DNA 2: GTGACAGTATTCTCAGTGTCTGA

Sequence of Ikaros zinc fingers 2-4 (F2-F4) (Q03267 144-223): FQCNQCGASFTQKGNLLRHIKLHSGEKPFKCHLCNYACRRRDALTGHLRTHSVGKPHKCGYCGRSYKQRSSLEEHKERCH
Sequence of Ikaros zinc fingers 1-4 (F1-F4) (Q03267 117-223): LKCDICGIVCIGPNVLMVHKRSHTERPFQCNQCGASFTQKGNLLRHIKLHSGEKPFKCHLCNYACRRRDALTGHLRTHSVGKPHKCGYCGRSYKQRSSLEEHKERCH

One series concerns the target Ikaros zinc fingers 1-4 (F1-F4) (UniProt Q03267 117-223). Kind of series: EMSA. (A gel shift assay detects complexes by their altered migration in electrophoresis.)
Turning to B1, the binding result was “binds”.

In the case of B2, the binding result is listed as “binds”.

In the case of B3, the binding result is reported as “no binding”.

The target in a further series is Ikaros zinc fingers 1-3 (F1-F3) (UniProt Q03267 117-194). Kind of series: EMSA.
Sequence of Ikaros zinc fingers 1-3 (F1-F3) (Q03267 117-194): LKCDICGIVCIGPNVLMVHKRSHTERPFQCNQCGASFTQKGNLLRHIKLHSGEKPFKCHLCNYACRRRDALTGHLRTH
Regarding B1, the binding result is on record as “binds”.

Turning to B2, the binding result is “no binding”.

For B3, the binding result was “no binding”.

The next series has as its target Ikaros zinc fingers 2-4 (F2-F4) (UniProt Q03267 144-223). Kind of series: EMSA.
For B1, the binding result was “binds”.

For the molecule B2, the binding result was “binds”.

On to B3, for which the binding result is “no binding”.

For the origin of these results see PMC3800053.
